For assay [1], the target named is T1, Abeta(1-40), fibrillar, immobilized (UniProt P05067 672-711).
T1 construct: domain: Abeta(1-40); Numbers 1-40 count on the Abeta peptide, not on the APP precursor; also called Abeta fibrils; fibrillar Abeta
Description: ELISA on coated fibrillar Abeta(1-40). As for the experimental part:
Functionality of mAb31 was confirmed by ELISA. Briefly, Abeta(1-40) was coated at 7 μg/mL in PBS onto Maxisorp plates for 3 days at 37° C. to produce fibrillar Abeta, then dried for 3 h at RT. The plate was blocked with 1% Crotein C and 0.1% RSA in PBS (blocking buffer) for 1 h at RT, then washed once with wash buffer. mAb31 constructs were added at concentrations up to 100 nM in blocking buffer and incubated at 4° C. overnight. After 4 wash steps, constructs were detected as indicated above.

In assay [2] the target is T2, recombinant mouse transferrin receptor (mTfR), extracellular domain (mouse, UniProt Q62351 89-763).
T2 construct: extracellular domain; Bought protein; also called murine Transferrin receptor 1
Put plainly: indirect ELISA on coated recombinant mTfR extracellular domain. As for the experimental part: Binding of mAb31-8D3 constructs to mouse transferrin receptor (mTfR) was assessed by indirect ELISA. To this end, recombinant mTfR (extracellular domain; Sino Biological) was coated to Maxisorb microtiter plate (Nunc) at 1 μg/mL in PBS at 4° C. overnight. After blocking in 1% Cro-tein-C/PBS (blocking buffer; Roche) for 1 h at RT and 4 washes with 0.1% Tween-20/PBS (wash buffer), mAb31-8D3 constructs were added to the wells at concentrations between 0.01 and 150 nM in blocking buffer and incubated for 1 h at RT. After 4 wash steps, constructs were detected by addition of anti-human-IgG-HRP (Jackson Immunoresearch) at 1:10,000 dilution in blocking buffer […], followed by 6 washes and incubation in TMB (Sigma). Absorbance was read out at 450 nm after stopping color development with 1 N HCl.

T2 sequence (Q62351 89-763): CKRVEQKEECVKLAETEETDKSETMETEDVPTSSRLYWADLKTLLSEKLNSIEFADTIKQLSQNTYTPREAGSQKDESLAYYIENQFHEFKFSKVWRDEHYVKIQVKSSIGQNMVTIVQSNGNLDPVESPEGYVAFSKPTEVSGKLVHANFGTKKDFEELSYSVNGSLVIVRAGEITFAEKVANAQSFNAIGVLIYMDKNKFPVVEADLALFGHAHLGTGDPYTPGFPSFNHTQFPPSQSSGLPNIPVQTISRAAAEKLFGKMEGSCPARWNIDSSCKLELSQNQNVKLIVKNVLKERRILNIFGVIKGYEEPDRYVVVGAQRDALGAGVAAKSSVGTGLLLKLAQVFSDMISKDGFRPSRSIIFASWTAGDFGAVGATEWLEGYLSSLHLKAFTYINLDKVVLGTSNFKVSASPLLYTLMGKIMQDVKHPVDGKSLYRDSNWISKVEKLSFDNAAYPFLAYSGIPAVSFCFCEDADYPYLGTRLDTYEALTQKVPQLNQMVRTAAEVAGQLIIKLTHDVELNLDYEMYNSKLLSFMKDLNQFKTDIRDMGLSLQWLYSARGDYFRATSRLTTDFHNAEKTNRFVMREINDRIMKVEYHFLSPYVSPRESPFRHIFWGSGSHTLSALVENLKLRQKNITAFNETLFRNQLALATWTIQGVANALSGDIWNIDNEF
T1 sequence (P05067 672-711 limits assumed): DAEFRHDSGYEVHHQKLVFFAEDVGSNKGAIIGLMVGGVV

B1: mAb31 (human monoclonal antibody recognizing Abeta; INN Gantenerumab) (antibody, V domains shown)
VH: QVELVESGGGLVQPGGSLRLSCAASGFTFSSYAMSWVRQAPGKGLEWVSAINASGTRTYYADSVKGRFTISRDNSKNTLYLQMNSLRAEDTAVYYCARGKGNTHKPYGYVRYFDVWGQGTLVTVSS
VL: DIVLTQSPATLSLSPGERATLSCRASQSVSSSYLAWYQQKPGQAPRLLIYGASSRATGVPARFSGSGSGTDFTLTISSLEPEDFATYYCLQIYNMPITFGQGTKVEIKR
notes: also called anti-Aβ monoclonal antibody mAb31
B1: the binding result in assay [1] is reported as “binds”; in assay [2], “no binding (tested: 0.01 to 150 nM)”.

These data come from patent publication US20150322149A1 (Hoffmann-La Roche, published 2015).
